The record followed here is patent publication US20220016257A1 (Daiichi Sankyo, published 2022).

Experiment [1] concerns the target T1, human CDH6 (full-length, on cells) (human, UniProt P55285 54-790).
T1 construct: also called hCDH6; full-length hCDH6
T1 sequence: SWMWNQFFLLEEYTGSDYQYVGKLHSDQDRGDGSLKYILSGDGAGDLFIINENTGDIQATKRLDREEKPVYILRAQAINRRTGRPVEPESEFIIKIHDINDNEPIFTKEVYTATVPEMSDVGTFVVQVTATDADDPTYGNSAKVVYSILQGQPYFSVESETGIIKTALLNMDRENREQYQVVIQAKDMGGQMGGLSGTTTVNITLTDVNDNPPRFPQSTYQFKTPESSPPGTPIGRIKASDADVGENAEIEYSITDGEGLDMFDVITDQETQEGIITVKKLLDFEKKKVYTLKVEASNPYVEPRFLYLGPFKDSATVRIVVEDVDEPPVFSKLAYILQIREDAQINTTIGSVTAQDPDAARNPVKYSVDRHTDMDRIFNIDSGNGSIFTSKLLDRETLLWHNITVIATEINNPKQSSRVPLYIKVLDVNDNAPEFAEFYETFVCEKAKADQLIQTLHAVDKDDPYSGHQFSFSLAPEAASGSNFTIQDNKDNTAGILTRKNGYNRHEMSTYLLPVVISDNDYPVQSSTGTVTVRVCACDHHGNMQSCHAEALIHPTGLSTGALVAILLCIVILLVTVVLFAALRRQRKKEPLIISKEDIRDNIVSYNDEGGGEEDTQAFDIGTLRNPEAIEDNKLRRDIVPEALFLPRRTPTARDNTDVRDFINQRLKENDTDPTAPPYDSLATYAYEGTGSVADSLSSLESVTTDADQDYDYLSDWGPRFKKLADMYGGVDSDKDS
The experiment can be described thus: competition flow cytometry on 786-O/hCDH6 cells, unlabeled antibody varied, competitor Alexa488-labeled H01L02 at 5 nM [lower panel]. How it is done:
The cell suspension of the 786-O/hCDH6 stably expressing cell line produced in 6)-2-2-1 was centrifuged, and the supernatant was then removed. Thereafter, the cells were suspended by the addition of labeled NOV0712 or labeled H01L02 (final concentration: 5 nM) and, further, the addition of each of the 4 humanized hG019 antibodies (clone Nos: H01L02, H02L02, H02L03 and H04L02), which had been prepared in Example 5)-5-3, or the anti-CDH6 antibody NOV0712, which had been prepared in Reference Example 1, or human IgG1 (Calbiochem) as a negative control (final concentration: as shown in the abscissa of FIG. 7). The cells were left standing at 4° C. for 1 hour. Thereafter, the cells were washed twice with PBS supplemented with 5% FBS, followed by detection using a flow cytometer (Canto II; BD Biosciences). The data was analyzed using FlowJo (TreeStar, Inc.). The abscissa depicts the final concentration of the added unlabeled antibody, and the ordinate depicts the amount of the antibody bound based on mean fluorescence intensity. When unlabeled NOV0712 is added to cells supplemented with labeled NOV0712, the amount of the labeled antibody bound is decreased by replacement with the unlabeled antibody in an addition concentration-dependent manner because they compete with each other for binding to the same epitope. […] Likewise, when each of the 4 unlabeled humanized hG019 antibodies is added to cells supplemented with labeled H01L02, the amount of the labeled antibody bound is decreased by replacement with the unlabeled antibody in an addition concentration-dependent manner because they compete with each other for binding to the same epitope.
On the technique in general: A flow cytometer gives signals particle by particle.

Experiment [2] deals with T2, EC3-deleted human CDH6 (EC3 deletion mutant, on cells) (human, UniProt P55285 54-790).
T2 construct: Full-length human CDH6 lacking EC3; Cloned in p3xFLAG-CMV-9; also called EC3-deleted hCDH6
T2 sequence: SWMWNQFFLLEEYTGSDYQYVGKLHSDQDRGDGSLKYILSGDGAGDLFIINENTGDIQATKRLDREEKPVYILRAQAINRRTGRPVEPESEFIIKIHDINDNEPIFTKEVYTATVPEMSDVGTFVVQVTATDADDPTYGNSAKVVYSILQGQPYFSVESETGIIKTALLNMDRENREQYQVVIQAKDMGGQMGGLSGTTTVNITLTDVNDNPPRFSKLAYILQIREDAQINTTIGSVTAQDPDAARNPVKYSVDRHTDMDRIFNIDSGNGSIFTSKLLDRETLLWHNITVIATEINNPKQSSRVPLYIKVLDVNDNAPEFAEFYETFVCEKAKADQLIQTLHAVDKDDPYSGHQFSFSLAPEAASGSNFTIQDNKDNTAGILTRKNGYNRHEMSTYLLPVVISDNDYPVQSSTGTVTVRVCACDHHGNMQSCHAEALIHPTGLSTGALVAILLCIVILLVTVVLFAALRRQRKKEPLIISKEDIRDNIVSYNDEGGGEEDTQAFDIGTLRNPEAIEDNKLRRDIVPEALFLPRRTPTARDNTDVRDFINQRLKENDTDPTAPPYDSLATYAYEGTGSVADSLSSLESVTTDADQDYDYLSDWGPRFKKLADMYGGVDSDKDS
The experiment can be described thus: flow cytometry, 293α cells transiently expressing EC3-deleted hCDH6 (open) against untransfected cells (shaded), APC anti-human IgG F(ab')2. Here is the method:
The cells were cultured overnight under conditions of 37° C. and 5% CO₂, and thereafter, a cell suspension was prepared. […] Thereafter, the cells were suspended by the addition of each of the 4 humanized hG019 antibodies (clone Nos: H01L02, H02L02, H02L03 and H04L02), which had been prepared in Example 5)-5-3, or the anti-CDH6 antibody NOV0712, which had been prepared in Reference Example 1, or human IgG1 (Calbiochem) as a negative control. The cells were left standing at 4° C. for 1 hour. The cells were washed twice with PBS supplemented with 5% FBS, and then suspended by the addition of APC-anti-human IgG goat F(ab′)2 (Jackson ImmunoResearch Laboratories, Inc.) that had been 500-fold diluted with PBS supplemented with 5% FBS. The cells were left standing at 4° C. for 1 hour. The cells were washed twice with PBS supplemented with 5% FBS, followed by detection using a flow cytometer (Canto II; BD Biosciences). The data was analyzed using FlowJo (TreeStar, Inc.). In the histograms of FIGS. 5-1 to 5-6, the abscissa depicts APC fluorescence intensity indicating the amount of the antibody bound, and the ordinate depicts cell count. […] Fluorescence intensity is enhanced when the antibody binds to full-length hCDH6 or each EC domain deletion mutant on the cell surface. The human IgG1 control binds to none of the transfected cells.

B1: humanized anti-CDH6 antibody H02L02 (antibody, human IgG1, kappa, V domains shown)
VH: EVQLVQSGAEVKKPGASVKVSCKASGYTFTRNFMHWVRQAPGQGLEWMGWIYPGDGETEYNQKFQGRVTITADRSTSTAYMELSSLRSEDTAVYFCARGVYGGFAGGYFDFWGQGTLVTVSS
VL: DIQMTQSPSSLSASVGDRVTITCKASQNIYKNLAWYQQKPGKAPKLLIYDANTLQTGVPSRFSGSGSGSDFTLTISSLQPEDFATYFCQQYYSGWAFGQGTKVEIKR
notes: hH02 heavy chain and hL02 light chain, human IgG1/kappa; also called H02L02 antibody; humanized hG019
Take B1: the “IC50 (read off the curve)” value in experiment [1] is about 3 nM. Besides, in experiment [2], the binding result is “no binding (tested: not given)”.

B2: humanized anti-CDH6 antibody H02L03 (antibody, human IgG1, kappa, V domains shown)
VH: EVQLVQSGAEVKKPGASVKVSCKASGYTFTRNFMHWVRQAPGQGLEWMGWIYPGDGETEYNQKFQGRVTITADRSTSTAYMELSSLRSEDTAVYFCARGVYGGFAGGYFDFWGQGTLVTVSS
VL: DIQMTQSPSSLSASVGDRVTITCKASQNIYKNLAWYQQKLGEGPKLLIYDANTLQTGVPSRFSGSGSGTDFTLTISSLQPEDFATYYCQQYYSGWAFGQGTKVEIKR
notes: hH02 heavy chain and hL03 light chain, human IgG1/kappa; also called H02L03 antibody; humanized hG019
With B2, in experiment [1], the “IC50 (read off the curve)” value was about 10 nM. The binding result in experiment [2] is listed as “no binding (tested: not given)”.

B3: humanized anti-CDH6 antibody H01L02 (antibody, human IgG1, kappa)
heavy: not shown
light: DIQMTQSPSSLSASVGDRVTITCKASQNIYKNLAWYQQKPGKAPKLLIYDANTLQTGVPSRFSGSGSGSDFTLTISSLQPEDFATYFCQQYYSGWAFGQGTKVEIKRTVAAPSVFIFPPSDEQLKSGTASVVCLLNNFYPREAKVQWKVDNALQSGNSQESVTEQDSKDSTYSLSSTLTLSKADYEKHKVYACEVTHQGLSSPVTKSFNRGEC
notes: hH01 heavy chain and hL02 light chain, human IgG1/kappa; also called H01L02 antibody; humanized hG019
As for B3, in experiment [1], the “IC50 (read off the curve)” value was about 5 nM. Moreover, in experiment [2], the binding result is “no binding (tested: not given)”.

B4: humanized anti-CDH6 antibody H04L02 (antibody, human IgG1, kappa, V domains shown)
VH: QVQLVQSGAEVKKPGASVKVSCKASGYTFTRNFMHWIRQAPGQGLEWMGWIYPGDGETEYAQKFQGRVTLTADRSTSTAYMELSSLRSEDTAVYYCARGVYGGFAGGYFDFWGQGTLVTVSS
VL: DIQMTQSPSSLSASVGDRVTITCKASQNIYKNLAWYQQKPGKAPKLLIYDANTLQTGVPSRFSGSGSGSDFTLTISSLQPEDFATYFCQQYYSGWAFGQGTKVEIKR
notes: hH04 heavy chain and hL02 light chain, human IgG1/kappa; also called H04L02 antibody; humanized hG019
On to B4, for which the “IC50 (read off the curve)” value in experiment [1] was about 10 nM. The binding result in experiment [2] was “no binding (tested: not given)”.
